Source: patent US20240247077A1 (CLEMSON UNIVERSITY RESEARCH FOUNDATION, published 2024)

Experiments:
mouse CYP1A = molecular target: T1, mouse CYP1A (mouse (M. musculus), UniProt P00184 1-524); experiment: IHC, liver of PCB-126 treated mouse
T1 construct: Endogenous protein in Hepa1c1c7 cell lysate (immunoblot) and fixed liver (IHC); also called HEPA1C1C7; mouse hepatoma cell line CYP1A
T1 sequence (looked up): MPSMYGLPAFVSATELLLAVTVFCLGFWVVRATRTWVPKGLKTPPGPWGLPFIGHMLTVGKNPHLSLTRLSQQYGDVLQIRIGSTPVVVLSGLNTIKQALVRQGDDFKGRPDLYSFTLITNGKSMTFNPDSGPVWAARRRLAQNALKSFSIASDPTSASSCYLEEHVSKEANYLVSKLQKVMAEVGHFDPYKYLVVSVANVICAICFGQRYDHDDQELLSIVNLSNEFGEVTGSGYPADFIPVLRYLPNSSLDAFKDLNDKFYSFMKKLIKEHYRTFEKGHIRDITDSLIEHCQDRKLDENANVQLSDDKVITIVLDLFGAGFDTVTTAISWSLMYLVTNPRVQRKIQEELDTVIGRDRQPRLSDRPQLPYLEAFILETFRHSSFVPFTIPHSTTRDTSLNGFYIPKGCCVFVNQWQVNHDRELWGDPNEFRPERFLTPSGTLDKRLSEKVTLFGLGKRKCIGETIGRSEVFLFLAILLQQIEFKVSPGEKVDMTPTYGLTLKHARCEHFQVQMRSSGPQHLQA
Description: Subsequently, slides were immersed in pH 9 Tris-EDTA buffer while heating by microwave on 100% power for 5 min followed by cooling for 5 min, followed by a final 5 min 100% power, then a final 20 min cool-down period in the container at room temperature. After antigen retrieval, tissues on slides were encircled with a Liquid Blocker Super mini pen to isolate tissue slices. Thus, each slide was divided into sections where one section can act as a reagent control by withholding a primary antibody. Additional screening assays included isotype controls. Once slides were divided, all sections were treated to quench endogenous peroxidase activity for 30 min using 3% H₂O₂ in water. […] After blocking, avidin-then biotin-blocking steps (15 min each) were conducted to allow specificity to target molecules only for the avidin-biotin binding. Next, the antibody, as a hybridoma supernatant diluted 1:10 in PBS with 0.5% FBS, was added dropwise to the slides and incubated overnight at 4° C. or for 2 h at RT. After incubation, the slides were washed prior to addition of the secondary (biotinylated) antibody for a 30 min incubation at RT. After washing, Vectastain ABC reagent was added for 30 min prior to staining.

[1] = molecular target: T2, recombinant human CYP1A1 expressed in HEK cells (human (H. sapiens), UniProt P04798 1-512); experiment: immunoblot, HEK cell lysate with recombinant human CYP1A1
T2 construct: Bought over-expression lysate; also called OriGene LC400170
T2 sequence (looked up): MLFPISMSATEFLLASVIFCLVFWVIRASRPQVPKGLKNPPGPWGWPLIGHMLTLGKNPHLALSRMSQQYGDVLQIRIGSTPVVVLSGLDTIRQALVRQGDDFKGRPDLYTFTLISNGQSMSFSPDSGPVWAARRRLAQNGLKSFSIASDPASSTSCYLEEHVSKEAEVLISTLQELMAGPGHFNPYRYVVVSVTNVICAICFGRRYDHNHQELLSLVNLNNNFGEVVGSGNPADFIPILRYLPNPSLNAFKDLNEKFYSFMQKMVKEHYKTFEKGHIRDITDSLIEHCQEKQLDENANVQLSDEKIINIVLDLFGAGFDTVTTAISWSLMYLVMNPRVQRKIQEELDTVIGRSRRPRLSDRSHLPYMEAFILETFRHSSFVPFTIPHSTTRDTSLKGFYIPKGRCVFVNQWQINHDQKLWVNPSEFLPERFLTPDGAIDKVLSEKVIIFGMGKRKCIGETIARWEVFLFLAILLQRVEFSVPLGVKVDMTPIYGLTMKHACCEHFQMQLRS
Description: HEK cells were grown in media only as a cell-specific source of control cell lysate for comparison with over-expressed recombinant CYP1A1 in HEK cell lysates from the supplier.
Media was then removed from cells, replaced with 0.25% trypsin, and incubated until cells lifted from attachment. Cells were then pelleted by centrifugation to obtain a dry pellet, covered with ice-cold 300-400 μL RIPA buffer (Thermo Fisher, Waltham, MA, USA) supplemented with 2×HALT protease inhibitor cocktail (Pierce), followed by resuspension using a vortex device and placement on ice for 20 min. Suspensions were then sonicated, transferred to 1.5 mL tubes, and centrifuged 12,000×g for 20 min. Overlying supernatants were removed and transferred to clean tubes and the protein content quantified. Lysate protein concentration for each cell line, rat S9 fractions, and rainbow trout microsomes were matched between treated and controls, then boiled in reducing sample buffer for 7 min. Forty micrograms of each sample was then subjected to SDS-PAGE using 10-lane, 50 μL well capacity 4-20% pre-cast gels (Biorad, Richmond, CA, USA) and immunoblotting using standard procedures incorporating PDVF membranes. Immunoblots were blocked overnight with 10% horse serum (Gibco) in 0.01 M phosphate buffered saline (PBS) containing 0.05% tween twenty (PBS-T). […]

rat CYP1A = molecular target: T3, rat CYP1A (rat (R. norvegicus), UniProt P00185 2-524); experiment: immunoblot, rat liver S9 fractions
T3 construct: Endogenous protein in liver S9 fraction, immunoblot; also called Rat liver S9 fraction, Arochlor-1254-induced
T3 sequence (looked up): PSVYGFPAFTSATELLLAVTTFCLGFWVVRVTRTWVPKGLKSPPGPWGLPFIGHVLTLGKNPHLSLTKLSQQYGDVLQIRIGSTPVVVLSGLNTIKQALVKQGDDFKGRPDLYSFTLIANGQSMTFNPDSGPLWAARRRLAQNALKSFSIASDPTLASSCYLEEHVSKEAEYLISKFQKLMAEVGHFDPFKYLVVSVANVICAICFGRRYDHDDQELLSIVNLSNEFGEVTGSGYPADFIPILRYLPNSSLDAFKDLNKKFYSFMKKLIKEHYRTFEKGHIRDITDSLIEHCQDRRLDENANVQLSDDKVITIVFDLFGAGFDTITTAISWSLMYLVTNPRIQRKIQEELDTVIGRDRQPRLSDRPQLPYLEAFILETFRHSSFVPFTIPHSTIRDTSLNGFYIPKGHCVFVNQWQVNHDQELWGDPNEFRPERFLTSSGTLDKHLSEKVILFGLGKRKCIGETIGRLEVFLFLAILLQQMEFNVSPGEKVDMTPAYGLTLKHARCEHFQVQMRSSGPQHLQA
Description: Lysate protein concentration for each cell line, rat S9 fractions, and rainbow trout microsomes were matched between treated and controls, then boiled in reducing sample buffer for 7 min. Forty micrograms of each sample was then subjected to SDS-PAGE using 10-lane, 50 μL well capacity 4-20% pre-cast gels (Biorad, Richmond, CA, USA) and immunoblotting using standard procedures incorporating PDVF membranes. Immunoblots were blocked overnight with 10% horse serum (Gibco) in 0.01 M phosphate buffered saline (PBS) containing 0.05% tween twenty (PBS-T). Membranes were washed once for 10 min with PBS-T, then probed for 2 h at room temperature (RT) with mAbs as confluent supernatants diluted 1:10 in PBS-T containing a final nominal concentration of 3 ug/mL antibody. […] After 3×washes with PBS-T, membranes were incubated with NBT-BCIP (Fisher Scientific, Pittsburgh, PA, USA) as the AP substrate and activity was visualized as dark blue banding of CYP1A at the expected size of approximately 55 kDa.

Measured: binding result

B1: mAb CRC4 (antibody, mouse IgG1, kappa, V domains shown)
VH: QVTLKESGPGILQPSQTLSLTCSFSGFSLSTSGMGVNWIRKPSGKGLEWLAHIFWDDDKRYNPSLKSRLTISKDTSRNQVFLMITSVDTADTATYYCASLAMDYWGQGTSVTVSS
VL: DIVMTQGASSVTVTPGESVSISCRSSKSLLHSNGRTFLYWFLQRPGQSPQLLIYRMSNLASGVPDRVSGSGSGTAFTLRISRVEAEDVGVYYCMQHLEYPFTFGGGTRLELKR
notes: Mouse IgG1 kappa from a hybridoma, used as confluent hybridoma supernatant (nominally 3 ug/mL after 1:10 dilution); also called monoclonal antibody CRC4; CRC4_1
binds: all assays above
